Stoichiometry N data for two substances are collected here from paper PMC4846087.

One assay deals with GST (27 kDa GST protein). The assay is described as follows: SEC; Superdex 200 10/300 GL pre-equilibrated with L buffer (40 mM Tris-base, 200 mM NaCl, 1 mM EDTA, 5% glycerol, 5 mM DTT, pH 8.0); eluate of the GST affinity column loaded; molecular weights of the peaks estimated from the column manufacturer's instructions; peaks analysed by SDS-PAGE.
The target in assay [1] is GST-tagged VirB9-1 (not stated | Anaplasma marginale). The assay is described as above.

Regarding “GST (27 kDa GST protein) (natural protein)”, in the assay with GST (27 kDa GST protein), the stoichiometry N was 2.
On to GST-tagged VirB9-1, for which the stoichiometry N in assay [1] is 2.
